Assay: yeast display, Sf9 membrane polyspecificity reagent, FACS + sequencing; frameworks hold sequencing errors
Outline: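 Genes from sorted yeast were amplified by colony PCR, read by MiSeq 2 × 250 sequencing and filtered on CDR length. These cells carried a synthetic nanobody library in Saccharomyces cerevisiae BJ5465 and were sorted by FACS into low and high (top ~1%) gates on anti-HA and streptavidin fluorescence. Polyreactivity is labelled according to the gate of origin.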

Sequence	polyreactivity (PSR sort gate)
QVQLLESGGAIVQAGGSHRLSCAASGSIFTHYAMGWYRQATGKERELVAGITSSGGSTYADSVKGRFTISRDNAKNSVYLQMISLKPEDTAVYYCAAEQLRSRLIEYDYWGQGTQVTVSS	low polyreactivity
QVQLLESGGGIVQAGGILRLSCAASGITIGWYAMGWYRPAPGKERELVASISSSGSTNYADSVKGLFTISRDNAKNTFYLQMNSMKPEDTAVYYCNKDYLLRHYYIYVIEGDYWGQGTQVTVSS	low polyreactivity
QVQLLESGGGLFQAGGSLRLSCAASGYTFSRNAMGWYRTAPGKERELVAANTGSGGSTYYADSVKGRFTISRDNAQNTVYYQMNSLKPEDTAVYYCATEVKRGYVGFDYWGQGTQVTVSS	low polyreactivity
QVQLLESGGGLLQAGASLLLSCAASGNIFYRNAMGWYRQAPGKERELVAAISSGGITYYADSVKGRYTISRDNAKNSVSLQMNSLKPEDTAVYYCAAYIRNWRATYEYWGQGSQVTVSS	high polyreactivity
QVQLLESGGGLVQAGASLRLSCAASGSICWVYDMGWYRQAPGKERELVAAISQSGGSTYYADSVKGRFTISRDNAKNTVYFQMNSLKPEDTAGYYCAAYVRGQNYDYWGQGTQVTVSS	high polyreactivity
QVQLLESGGGLVQAGGRLRLSCADSGGIIAYNAIGWYRQAPAKERELVAAISSSGGRTYYADSVKGRFTISRDNAKITVYLQMNSLKPEDTAVYYFAAVRSGIEYGYWGQGTQVTVSS	high polyreactivity
QVQLLESGGGLVQAGGRLRLSCAPSGRSIRYYTMGWYRQAPGKERELVAAISRSGDSTYYADSVKGRFTISRDNEKNTVYVQLKCLIPVDTAVYYCAASLVYQFCYDYWGQGTQVSVSS	high polyreactivity
QVQLLESGGGLVQAGGSHRLSCASSGRTFSRYAMGWYRQAPGKERELVAAISYSGGSTYADSVKGRFTISRDNAKNTVYLQMIRLKPEDTAVYYCAAEKYVYWFSYQYGYWGQGTQVSVSS	high polyreactivity
QVQLLESGGGLVQAGGSLRFSCAASGFTFPVYAMGWYRQAHGKEREFVAAISWSGGSTSYADSVKGRFTSSRDNAKNTVYLQMNSLKPEDTAVYYCAAEHEQYTQLDYWGQGTQVTVAS	high polyreactivity
QVQLLESGGGLVQAGGSLRISCASSVRISPRYAMGWYRQAPGKERELVAAIDTSDGTTYYADSVKGRFTISRDNAMKTVYFQMNSLKPEDTAVYYCAAEGQLFDLYDYWGHGTQVTVSS	low polyreactivity
QVQLLESGGGLVQAGGSLRLICAASGLIFGPYTMGWYRQAPGKERELVAAITRSGGRTYYADSVKGRFTISRDNAKNTVYLQMNRLKPEDTAVYYCAAYGGQSWDYDYWGQGTQVTVSS	high polyreactivity
QVQLLESGGGLVQAGGSLRLSCAASGFIFSKYAMGWYRQAPGKERELVAGINRSGGSTYYADSVKGRFTISRDNAKNTVYFQMNSLKPEDTAVYYCAAPFGVQSRWYGQSGYWGQGTQVTVSS	high polyreactivity
QVQLLESGGGLVQAGGSLRLSCAASGFTFQYYAMGWYRQAPGKERELVAAITRGDSTNYADSVKGRFTISRDNAKNTVYLQMNSLKPEDTAVYYCAAGSAPSYWGGWYYERDYWGQGTQVTVSS	low polyreactivity
QVQLLESGGGLVQAGGSLRLSCAASGFTFVYYAMGWYRQAPGKERELVAAISSSGGITYYADSVKGRFTISRDNAKNTVYLQMNSMKPEDTAVYYCAARLWYPYYYWGQGTQVTVSS	high polyreactivity
QVQLLESGGGLVQAGGSLRLSCAASGFTFYRYAMGWYRQAPGTERELVAVISRGGNTYYADSVKGRFTISRDNAKNTVYLQMNSLKPEDTAVYDCAVYYPRGVSGGRFTRYDYWGQGTQVTVSS	high polyreactivity
QVQLLESGGGLVQAGGSLRLSCAASGITFEHYAMGWYRPAPGKERELVAAITWSGDSTNYADSVKGRFTISRDNAKNTVYLQMNSLNPEDTAVYYCAAYAYAGLYSGTWGYDYWGQGTQVTVSS	low polyreactivity
QVQLLESGGGLVQAGGSLRLSCAASGLTFTAYVMGWYRHAPGKERELVAAISGGGSTYADSVKGRFTISGDNAKNTVSLQMNSLKPEDTAVYYCNADGWGDRFWSNFRFDYWGQGTQVTVSS	low polyreactivity
QVQLLESGGGLVQAGGSLRLSCAASGLTIWRYAMGWYRQAPGKEREFVATISHNGGRTYYADSVKGRFTISRDNAKNSVYLQMNSLKPEDTAVYYCAADDWRWGYDYWGQGTQVTVSS	high polyreactivity
QVQLLESGGGLVQAGGSLRLSCAASGNTFSYYTMGWYRPAPGKERELVAAISASGGSTYYADSVKGRFTISRDNAKNTVYIQMNSLKQEDTAVYYCAASFYIERHRYNYWGHGTQVTVSS	high polyreactivity
QVQLLESGGGLVQAGGSLRLSCAASGNTYPVNARGWYRQAPGKERDLVAAISRTGASTYYADSVKGRFTISRDNAKNTVYLQMNSLIPEDTAVYYCAKYLKTPHNRRRVEALGYWGQGTQVTVSS	high polyreactivity
QVQLLESGGGLVQAGGSLRLSCAASGRIFNYNAMGWYRQAPGKERELVAAISWDGGSTYYADSVKGRFTISRDNAKNTVYLQMNSLKPEDTAVYYCAARGGSRRFQSQAYSLPRYDYWGQGTQVTVSS	high polyreactivity
QVQLLESGGGLVQAGGSLRLSCAASGRIFRRYAMGWYRQAPGKEREFVAAITKSGGSTYYADSVKGRFTISRDNAKNTVYLQMNSLKPEDTAVYYCATYPQYYFRYDYWGQGTQVTVSS	high polyreactivity

Sequence	polyreactivity (PSR sort gate)
QVQLLESGGGLVQAGGSLRLSCAASGRNFGVNAMGWYRQAPGKERELVAVISSGGSTYYADSVKGRFTISRDNAKNTVFLQMNSLKPEDTAVYYCAAGNLPDYDYWGQGTQVTVSS	low polyreactivity
QVQLLESGGGLVQAGGSLRLSCAASGRNFSRYAMGWYRQAPGKERELVAGITRSGTTTYYADSVKGRFTISRDNAKNTVYLQMNSLKPEDTAVYYCAAPPIRPNLYDYWGQGTQVTVSS	high polyreactivity
QVQLLESGGGLVQAGGSLRLSCAASGRSYCNNVMGWYRQEPGKERELVAAITFSGTSTYYADSVKVRFTISRDNAKNTVYLQMNSLKPEDTAVYYCAKYRYADYYSPCYDYWGQGTQVTVSS	low polyreactivity
QVQLLESGGGLVQAGGSLRLSCAASGRTCRWYAMGWYTQAPWKERELVAAISSSTASTYYADSVKGRFTISRDYAKITVYLQMNSLKPEDSAVYYCAKYYYRFPVCYDYWGLGTQVTVSS	high polyreactivity
QVQLLESGGGLVQAGGSLRLSCAASGRTFRRYAMGWYRQAPGKERELVAAISYSGTTTYYADSVKGRFTISRDNAKNTVYLQMNSLKPEDTAVYYCNKATAYGLDYWGQGTQVTVSS	high polyreactivity
QVQLLESGGGLVQAGGSLRLSCAASGRTFRVYARGWYRQAPGKEREFVATISVRGGSTYYAYSVKGRFTISRDNAKITVYLQMNSLKPVDTAVYYCARSSRGNLDYWGQGTQVSVSS	low polyreactivity
QVQLLESGGGLVQAGGSLRLSCAASGRTFRYYTMGWYRQAPGKEREFVDAISSTGGTYYADSVKGRFTISRDNAKNTVYLQMNCLKPEDTAVYYCAATFIQVVVNVQLYDYDYWGQGTQVTVSS	low polyreactivity
QVQLLESGGGLVQAGGSLRLSCAASGRTFTGYVMGWYRQATGKERELVAGISRRGGRTYYADSVKGRFTISRDNAKNTVYLQMNSLKPEDTAVYYCAAAVTSSDPYDYWGQGTQVTVSS	high polyreactivity
QVQLLESGGGLVQAGGSLRLSCAASGRTFTSNVMGWYRQAPGKERELVAAISSSGGRTYYADSVKGRFTISRDNAKNTVYLLMNSLKPEDTAVYSCAADGYPEYPRYGYWGQGTQVTVSS	high polyreactivity
QVQLLESGGGLVQAGGSLRLSCAASGSIFDGYGMGWYRQAPGKERELVAGITSGGSTYYADSVKGRFTISRDTAKNTVYLQMNSLKPEDTAVYYCATVVRYSNARGDYWGQGTQVTVSS	low polyreactivity
QVQLLESGGGLVQAGGSLRLSCAASGSIFYPYAMGWHRQAPGKERELVAAISYSGGSTYYADSVKGSFTISRDNAKNTVYLQMNSLKPEDSAVYYCAASVFRGSATYDSWGQGTHVTVSS	high polyreactivity
QVQLLESGGGLVQAGGSLRLSCAASGSNFSSYAMGWSRQAPGTERELVASISRRGGSTYYADSVKGRFTISRDNAKNTVYLQMNSLKPEDTAVYYCNASGGPYRYYYWGQGTQVTVSS	low polyreactivity
QVQLLESGGGLVQAGGSLRLSCAASGSTFSYNAMGWYIQAPGKERELVAAIDRSVSTNYADSVKGRFTISRDNAKNTVYLQMNSLKPEDTEVYYCNARHPTDDIVIYDYWGQGTQVTVSS	low polyreactivity
QVQLLESGGGLVQAGGSLRLSCAASGSTFTNYAMGWYRQAPGKERELVAAITSGGSTYYADSVKGRCTISRDNAKNTVYLQMNSLKPEDTAVYYCNAVYFSEYDSWGQGTLVTVSS	low polyreactivity
QVQLLESGGGLVQAGGSLRLSCAASGSTYSRYDMGWYRPAPGKERELVAAISRSGGSTYYADSVKGRFTISRDNAKNTVYLQMNSLKPEDTAGYYCAAYLPYRQGRYGYEYWGQGTQVNVSS	high polyreactivity
QVQLLESGGGLVQAGGSLRLSCAASRRIIYGYAMGWYRQAPGKERELVAAITATYYADSVKGRFTISRDNPKNTVYLLMNSLKAVDTAVYYCNAYLSPKQPLSPQDPTFEGGYWGQCTQVTVSS	low polyreactivity
QVQLLESGGGLVQAGGSLRLSCASSGFTFGWYAMGWYRPAPGKERDLVAAISYSGGSTYYADSVKGRFTISRDNAKNTVYLQMNSLKPEDTAVYYCAAKARRPYSYHPYDYWGQGTQVTVSS	high polyreactivity
QVQLLESGGGLVQAGGSLRLSCASSGYTIIQYAMGWYRQAPGKERELVAGNTWSGGSTYADSVKGRFTISRDNAKNTVYLQMKSLKQEDTAVYYCAADQEPGKYRFPYARKNNYWGQGTQVTVSS	low polyreactivity
QVQLLESGGGLVQAGGSLRLSCDASGSISYHNAMGWYRQAPGKERELVASITSGSSTYYADSVKGSFTISRDNAKNTVYLQMNSLKPEDTAVYYCAAQDYSPYERGRDYWGQGTQVTVSS	low polyreactivity
QVQLLESGGGLVQAGGSLRLSCPASGRIFGSYAMRSYRKAPGKERDFVAAISRTGGSTYYADSVKGRFTISRDNAKNTVYLQFTSLKPEDTAVYYCAASYRWRFVRGYYWGQGTQVNVSS	high polyreactivity
QVQLLESGGGLVQAGGSLRLSCVASGGILSSNAMGWYRQAPGKERELVAAISSGGSTNYADSVKGRFTISRDNAKNTVYLQMNSLKPDDTAVYYCAADSKIGSFDSWGQGTQVNVSS	low polyreactivity
